From the nanobody polyreactivity screen of Harvey et al. (2022)

Assay: yeast display, Sf9 membrane polyspecificity reagent, FACS + sequencing; frameworks hold sequencing errors
Procedure, shortened: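 Nanobodies from a synthetic yeast display library (Saccharomyces cerevisiae BJ5465), induced 36–48 hours with galactose, were stained 1 hour at 4 °C with 10% biotinylated, detergent-solubilized Sf9 membrane reagent, enriched on streptavidin microbeads, then FACS-sorted. Anti-HA (expression) and streptavidin (reagent binding) fluorescence set low and high (top ~1%) gates. Polyreactivity labels come from the gate of origin. Genes were colony-PCR amplified, MiSeq 2 × 250 sequenced and filtered by CDR length.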

| Sequence | polyreactivity (PSR sort gate) |
| --- | --- |
| QVQLVESGGGLVQAGGSLRLSCAASGGTFWLYAMGWYRQAPGKEREFVAAISYSGGSTYYADSVKGRFTISRDHAKNTVYLQMNSLKPEDTAVYYCAASAYYLDYDYWGQGTQVTVSS | high polyreactivity |
| QVQLVESGGGLVQAGGSLRLSCAASGSTFDIYALGWDRQAPGKEREMVAVISGGDGSTYYADSVKGRFTISRDNEKNTVYLQMNSLKPEETAVYYFAADRGTVSYLYSPRAVDYWGQGTQVTVSS | low polyreactivity |
| KVQLVESRGGLVQAGGSLRLSCAASGRTFIRYAMGWYRQAHGKEREFVAAITWSGGSTYYADSVKGRFTISRDNAKNTVYLQMNSLKPEDTAVYYCAKYPAARAVDYWGQGSQVTVSS | high polyreactivity |
| QVQLVESGGGLVQAGGSLRLSCAASGNIFDLYAMGWYRQAPGKERELVAAITRSSSRTYYADSVKGRFTISRDNAKNTVYLQMNSLKPEDTAVYYCAAKYSNGSGFDYWGQGTQVTVSS | high polyreactivity |
| QVQLVESGGGLVQAGGSLRLSCAASGRIFYTYAMGWYRQAPGKERELVAAIRWSSGSTFYADSVKGRFTISRDNAKNSVYLQMNSLKPEDTAVYYCATEYYPQYQSTGWYDYWGQGTQVTVSS | low polyreactivity |
| QVQLVESRGGLVQAGGSLRLSCAASGRTFSGNAMGWYRQAPGKERELVAAITSVGTTNYADSVKGRFTISRDNANNTVYLQMNSLKPEHTAVYYCAADPPSDYYKYDYWGHGTQVTVSS | low polyreactivity |
| QVQLVESGGGLVQAGGSLRLSCAASGSTFLSYVMGWYRQAPGKERELVAAITGTGGRTYYADSVKGRFTISRDNAKNTVYLQMNSLKPEDSAVYYCTAYRKHGYDYWGQGTQVTVSS | high polyreactivity |
| QVQLVESGGGLVQAGGSLRLSCAASGSIFEPYAMGWYRQAPGKERELVAAISSDGTTNYADSVKGRFTISRDNAKNTVYLQMNSLKPEDTAVYYCAADVFNWGYYYWGQGTQVTVSS | low polyreactivity |
| QVQLVESGGGLVQAGGSLRLSCAASGLIFWGYAMGWYRQAPGKERELVAAISSSGGSTYYADSVKGRFTISRDNAKNTVYLQMNSLKPEDTAVYYCNADYTYYPGYDYWGQGTQVTVSS | low polyreactivity |
| QVQLVESGGGLVQAGGSLRLSCAASGSTFGVYAMGWYRQAPGKEREFVAAISSSDGSTYYADSVKGRFTISRDNAKNTVYLQMNSLKPEDTAVYYCAKRGGYIYYAVTFTAEHGYWGQGTQVTVSS | low polyreactivity |
| QVHLVESGGGLVQAGGSLRLSCAASGSTFYYYVMGWYRQAPGKERELVAAINISGGNTYYADSVKGRFTISRDNAKNTVYLKKNSLIPEDTAVYYCAADYRSSRTTEYYYWGQGTQVTVSS | low polyreactivity |
| QVQLVESGGGLVQAGGSLRLSCGASGSTFRLYALGWYRQAPGNEWAFVAAISFRGGSTYYADSVKGRFTISRDNAQNTVYLQMNSLKPEDTAVYYCAAEVGTGGVRTPRYEYWGQGTQVTVSS | high polyreactivity |
| QVQLVESGGGLVQAGASLRLSCAASGSIFGGYAMGWYRQAPGKERELVAAISRSGRTNYADSVKGRFTISRDNAKNTVYLQMNSLKPEDTAVYYCAVDKRYGRVVGRDYDYWGQGTQVTVSS | high polyreactivity |
| QVQLVESGGGLVQAGGSLRLSCAASGRTFGRYAMGWYRQAPGKERELVATITSGGSTNYADSVKGRFTITRDNAKNTVYLQMNSLKPEDTAVYYCAAEFSPSRWAYSEGALRYNYWGQGTQVTVSS | low polyreactivity |
| QVQLVESGGGLVQAGGSLRLSCAASGRIFFSYAMGWYRQAPGKERELVAAISRSGGRTYYADSVKGRFTISRDNAKNTVYLQMNSLKPEDTAVYYCAASSISSLYYDYWGQGTQVTVSS | high polyreactivity |
| QVQLVESGGGLVQAGGSLRLSCAASGRTFFVNAMGWYRQAPGKERELVATITFSGDSTYYADSVKGRFTISRDNAKNTVYLQMNSLKPEDTAVYYCAVRWPSARIPVKLDYWGQGTQVTVSS | high polyreactivity |
| QVQLVESGGGLVQAGGSLRLTCAASGRILRINTMGWYRQAPGKEMELVAAISLSGGTTYYAHSVKGRFTISRDNAKNTVYLQMNSVKPEDTAVYYCYKAIWYAEYDYWGQGTQVTVSS | low polyreactivity |
| QVQLVESGGGLVQAGGSLRLSCAASGRIFGTNAMGWYRQAPGTEMELDADITSGGSTNYADSVKGRFTISRDNAKNTVYLQMNSLKPEDTAVYYCAADVIGDLRWYREEYWGQGTQVTVSS | low polyreactivity |
| QVQLVYSGGGLVQAGGSLRLSCAASGRTFSWYAMGWYRTAPGKESELVAAITWSGGSTYYADSVKGRFTISRDNAKNTVYLEMNSLKPEDTAVYFCNALRYSNRRYYSTGPHDYWGQGTHVTVSS | high polyreactivity |
| QVQLVESGGGLVQAGGSLRLSCAASGFIFRVYTMVWYRQAPGKERELVAAISYRGGRTYYADSVKGRFTISRDNAKNTVFLQMNSLKPEDTAVYYCAADRVNREFDYWGQGTQVTVSS | high polyreactivity |
| QVQLVESGGGLVQAGGSLRLSCAASGSTFSSYVMGWYRQAPGKERELVAAISSIGGSTYYADSVKGRFTISRDNAKNTVYLQMNSLKPEDTAVYYCNADYVIYFGLYEYWGQGTQVTVSS | low polyreactivity |
| QVQLVESGGGLVQAGGSLRLTCAATGSTLYFYAMGWYRQAPGKERELVASISGTGGRTDYADSVKGRFTISRDNAKNTVYLQMNSLKPEDTAVYYCAADLIRRYGDGYWGQGTQVTVSS | high polyreactivity |

| Sequence | polyreactivity (PSR sort gate) |
| --- | --- |
| QVQLVESGGGLVQAGGSLRLSCAASGFIFDYYAMGWYRQAPGKERELVATISSSGGSTYYADSVKGRFTISRDYAKKTVYLQMNSLKPEDTAVYYCATGYTWVADSWEYYYWGQGTQVTVSS | low polyreactivity |
| QVHLVESGGGLVQAGGSLRISCAASGRIFWWYAMGWYRQAPGKERELVAAISTGSRTYYADSVKGRFTISRDNAKNTVFLQMNRLKPEDTAVYYCVADGLYSVSRSSIFEYWGHGTQVTVSS | low polyreactivity |
| QVQLVESGGGLVQAGGSLRLSCAASGSTFDSYVMGLYRQAPGKERELFAAISSDDSTYYADSVKGRFTISRDNAKNTVYLQMNSLKPEDTAVYYCAATNFRDYYWSWKYYYWGQGTQVTVSS | low polyreactivity |
| QVQLVESGGGLVQAGGSLRLSCAASGSTFQSNARGWYRQAPGKERELVASITSSGVSTYYADSVKGRFTISRDNAKNTVYLQMNSLKPEDTAVYYCAASSYDAYDYGFRFDYWGQGTQVTVSS | low polyreactivity |
| QVQLVESGGGLVQAGGSLRLSCAASGSTIGRYTMGWYRQAPGKERELVAAITGSGAGTYYADSVKGRFTISRDNAKNTVYLQMNRLKPEDTAVYYCNTVFRGGQFRYVRGVKYGYWGQGTQVTVSS | high polyreactivity |
| QVQLVESGGGLVQAGGSLRLSCAASGRTFNSYAMGWYRQAPGKERELVASISSGGSTYYADSVKGRFTLSRDNAKHTDYLQMNSLKPEDTAVYYCAAKSVAYYSYFRRDYWGQGTQVTVSS | low polyreactivity |
| QVQLVESGGGLVQAGGSLRLSCAASGSSFPGYAMGWYRKAPGKERELVATSTYSDGSTYYADSVKGRFTISRDNAKNTVYLQMNSLKPEDTAVYYCAVTYWWYYGYDYWGQGTQVTVSS | low polyreactivity |
| QVQLVESGGGLVQAGGSLRLSCAASGRIWLYAMGWYRQAPGKERELVAAISWTDGRTRYADSVKGRFTISRDNAKNTVYLQMNRLKPEDTAVYYCAPVVDRGYRRVKYYYWGQGTQVSVSS | high polyreactivity |
| QVQLVESGGGLVQAGGSLRLSCAASGRILKVYAMGGYRQAPGQERELVAAISVNGGRTYYADSVKGRFTISRDNAKNTVYLQMNSLKPEDTAVYYCAIRLYKPGNVFYSVDQSDYWGQGTQVTVSS | low polyreactivity |
| QVQLVESGGGLVQAGGSLRLSCAASGSTFGLYTMGWYRQAPGKARELVAVINRSGGSTYYADSVKGRFTISRDNAKNTVYLQMNSLKPEDTAVYYCAAQRAVAGGRLDYWGQGTQVTVSS | high polyreactivity |
| QVQLVESGGGLVQAGGSLRLSCAASGFTFRSNVMGWYRQAPRKERELVAAIRWSGGSTYYADSVKGRFTISRDNAMNTVYLQMNSLKPDDTAVYYCNARIYRSGYKFNYWGQGTQVTVSS | high polyreactivity |
| QVQQQESGGGLVQAGGSLRLSCAASGYIFQAENMGWYRQAPGKERELVAAITIGASTYYADSVRGRFTISRDNAKNTVYLQMNSVKPEDTAVYYCAAKRFQYRTLYDYWGQGTQVTVSS | high polyreactivity |
| QVQLVESGGGLVQAGGSLRLSCAASGTFKWYAMGWYSQAPGKERELDAVISSSGGTTYYADSVKGRFTISRDNAKNTVYLQMNSLKPEDTAVYYCNKRFRSWTTGSPYDYWGQGTQVTVSS | high polyreactivity |
| QVQLVESGGGLVQAGGSLRLSCAASGRIFNDYAMGWYRQAPGKERELVAVIRRSGVSTYYADSVKGRFTISRDNAKNTVYLQMNSLKPEDTAVYYCAADIRSNRLYDGGYWGQGTQVTVSS | low polyreactivity |
| QVQLVESGGGLVQAGGSLRLSCAASGFTFYDYDMGWSRQAPGKERELVATITWSGGRTYYADSVKGRFTISRDNAKNTVYLQMNSLKPEDTAVYYCAADEPDRDYGYWGQGTQVTVSS | low polyreactivity |
| QVQLVESGGGLVQAGGSLRLSCAASGFIFSGYVMGWYRQAPGKERELVAAITGSDGSTYYADSVKGRFTISRDNAKNTVYLQMNSLKPEDTAVYYCATTFQYYWFSLYDYWGQGTQVTVSS | low polyreactivity |
| QVQLVESGGGLVQAGCRLRLSCAASGRTFFPYAMGWYRQAPGKERELVAAITTGDITNYADSVKGRFTISRDNAKNTVYLQMNSLKPEDTAVYYCAARGYASWSYGGYPLKLDYWGQGTQVTVSS | low polyreactivity |
| QVQLVESVGGLVQAGGSLRLSCAASGFIFYWYAMGWYRQAPGKERELVAAITRSGGRTYYADSVKGRFTISRDNAKNTVYLQMNSLKPEDTAVYYCNAGYWLSPYKFGYWGQGTQVTVSS | high polyreactivity |
| QVQLVESGGGLVQAGGSLRLSCAASGNTFGYNAMGWYRQAPGKERELVASITWSGGSTYYADSVKGRFTISRDNAKNTVYLQMNSLKPEDTAVYYCNADVRYGRDHWGQGTQVTVSS | low polyreactivity |
| QVQLVESGGGLVQAGGSLRLSCAASGSTFYRYAMGWYRQAPGKERELVAAITRGGGNTYYADSVKGRFTISRDNAKNTVYLQMNSLKPEDTAVYYCNTDPTLRSRVGIWGFDYWGQGTQVTVSS | high polyreactivity |
| QFQLVESGGGLVQAGGSLRLSCAASGFTFWLYAMGWYRQAPGKEREFVAAISTSGGSTYADSVKGRFTISRDNAKNTVYLHMNSLKPEDTAVYYCNAGYLLYYDYHLFYWGQGTQVTVSS | low polyreactivity |
